Data taken from the supplement of paper PMC9170038.

Test system: K4 kissing-loop RNA reporter
Assay: apparent KD of K4 kissing-loop reporter; higher = weaker reporter binding
Settings: Eterna round: R107
Description: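 RNA-MaP round R107: designed RNA switches with theophylline, tryptophan, arginine or FMN aptamers are transcribed on-chip within common flanks. They are titrated with a labelled K4 kissing-loop RNA reporter in RNA-MaP buffer (100 mM Tris pH 7.5, 80 mM KCl, 4 mM MgCl2), without ligand or with the indicated ligand. Median apparent KD per design.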

[1] = input ligand: theophylline 20 uM
[2] = input ligand: tryptophan 2.4 mM
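Note: bound reporter read as fluorescence of individual clusters on recovered sequencing chips by microscopy, with normalized cluster intensities fitted with a binding model.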

Row | Sequence | apparent KD of K4 kissing-loop reporter (input ligand: FMN 200 uM) | apparent KD of K4 kissing-loop reporter (input ligand: arginine 13.2 mM) | apparent KD of K4 kissing-loop reporter (input ligand: none) | apparent KD of K4 kissing-loop reporter [1] | apparent KD of K4 kissing-loop reporter [2]
1 | CAUACUUGCCGACCGCGGCACGCUAGUGAUACCAGUAACACCGUCUACCCUUGGCAGCACGAGAGAGUGAUGUUUUCAGCAGCCA [theeternabot_sameState_KL_Theo_A_3] | 1030 nM | 722 nM | 982 nM | 736 nM | 857 nM
2 | UAUGGAGUGAUGUUCCGUAUGACUGUCGAUACCAGCCUGUGCCUUGGCCCUUGGCAGCGAAAAGCAUCGGCUAAUGUCGCGUCAU [Onaraed] | 201 nM | 191 nM | 194 nM | 221 nM | 184 nM
3 | GCAACAUUGGGAGGAUAUCAUUCUGAGUGAUGUUCAGGGUUCAGCUAACGAAAGUUAGUUGUACCAUGAGAAGGCCUAAUGUUGC [Omei KL FMN B SS A v2] | 287 nM | 769 nM | 964 nM | 867 nM | 961 nM
4 | GACAUACCUAUGGAGGGCCGAUCGAACAAACGAGGACCGGUACGGCCGCCACUCGUGGGCAGUGAUGUUGACCCUGGGAGGUAAG | 373 nM | 410 nM | 544 nM | 236 nM | 598 nM
5 | AAAUUUAUAUUAGAUACCAGUAUUUUGAAUGUUUAUUAUGACAAGAGUGAUGUUCUUGUAUGCCCUUGGCAGCUGGUAUGGGUUU [KL-XTheo-B23] | 116 nM | 111 nM | 111 nM | 113 nM | 115 nM
6 | AAUGUACAGGGAAGGAGCGUCGUCCAGUGAUGUUGGAGUUAAAUACCAGUGAUGUUGGUUAGGCAGGUAGGUCGCCCUAAAGUAU [#08 K4 Arginine B Exclusion] | 96.1 nM | 71.5 nM | 86.9 nM | 80 nM | 75.2 nM
7 | UUUAAACAUAGUGAUGUUAUGUAACAGUGACGAGGACCGGUACGGCCGCCACUCGAGAGAGAUAGUGGUCAUGCAAAUGUAUGCC [#16 K4 Tryptophan A Same State] | 145 nM | 167 nM | 123 nM | 136 nM | 137 nM
8 | GGCACGGGCUCGGCCGCCACUCCCGCGGGUCGUAAGGUCCGCUACUGAGUGAUGUUCGGUUGGAGGAGGACCGGGAGCCCGUGCC [#2 Exclusion - Tryptophan B Attempt #20 (HarryS)] | 149 nM | 220 nM | 143 nM | 145 nM | 119 nM
9 | UGCAUGCUAGUAGUGAUGUUACAUGAUGAUACCAGUGCUUUUUUGCACCCUUGGCAGCGUCAUUUUGCAUGCACGUCGAAAGACG | 511 nM | 473 nM | 565 nM | 344 nM | 474 nM
10 | CAUAGGAAACUAUGUAUCUCUCUUACUGAAGGAGCGCGUGAAAACGCAGGUAGGUCGCAGAAUUUAAUAGAGAGUGAUGUUCUCA [Ex Arginine A K4 6] | 393 nM | 332 nM | 496 nM | 513 nM | 473 nM
11 | ACACUUUACGUAGGAUAUGCGACGAGUGAUGUUCGUCAGGCGGCUUUAGCUUAAGCAAGCCGCCUAGCAGAAGGACGGGCAGUGU [Bigemalaza] | 139 nM | 163 nM | 179 nM | 185 nM | 173 nM
12 | AAAUCGUUCAGAAGGAGCGUGGAUUAUUCUUAUAUAUUUAUUACGAGUGAUGUUCGUAAUUCACAGGUAGGUCGCUGAUCGAUAA [JR_ExcArginiB_Sub004] | 106 nM | 126 nM | 112 nM | 130 nM | 108 nM
13 | AGACCACAAAGUGGUCAGUGUUCGCAGCAGCGAGGACCGGUACGGCCGCCACUCGCGAGUGAUGUUCGCGAGAGCUGCGAACACA [Omei KL Tryp A Exc A v7] | 101 nM | 83.2 nM | 81.3 nM | 83.3 nM | 109 nM
14 | GUAUGUGGAAACACGUACUUGUAUCCUAAGCAGGAUAUGCGGAAACGCAGAAGGGCUACCAACGAGUUUAUCCAGUGAUGUUGGA [Ex FMN A 13] | 507 nM | 298 nM | 332 nM | 393 nM | 455 nM
15 | ACAGAGUGAUGUUUUGUAAAGAUCUUUGAUACCAGCGCCAGAAAUCGCCCUUGGCAGCAAGCCGUACAUACGUUGAUUGAUCCAC [theeternabot_exclusion_KL_Theo_A_14] | 738 nM | 694 nM | 926 nM | 758 nM | 577 nM
16 | GAAAGAAAGUAUGAUACCAGACACCCGAGUGAUGUUCGGAACAGUGUGUUGUUCUUUUAAGUCCCUUGGCAGCAUAAAAGAAAAG [whbob_SS_Theo_B_sa86] | 135 nM | 143 nM | 151 nM | 171 nM | 110 nM
17 | UAUAUAGUGACGGCCGCCACUAUUGUGAUGUAGUUGUUAGAGUGAUGUUUUGUUGUUUGAUUUUGUAGGACCGGGUUAUAUGUUA [rccrwzmullin] | 842 nM | 565 nM | 812 nM | 612 nM | 668 nM
18 | AUGGGUCCACGAAGGAGCGCCGUGGAGUGAUGUUCCGGUUAGAUCCAGUGAUGUUGGGCCCGGCAGGUAGGUCGCGUGGACUCAU [Exclusion Arginine B GF 23] | 720 nM | 522 nM | 586 nM | 729 nM | 533 nM
19 | AUCGGGAAUACGGCCGCCACUAUAGAGGCGACUACAUACCACCACAGUGAUGUUGUGCUGACCAGUAGGACCGGGUAAAAUCGAU [theeternabot_exclusion_KL_Trp_B_49] | 817 nM | 594 nM | 871 nM | 726 nM | 672 nM
20 | AGACUACCACACUGUCAAUAGACAGUGGACUAGGAUAUGCUGAUAAGCAGAAGGAGUGAUGUUCCGAGGUAGUCAAUAAAAUAAU [FmnAX 13 G28+G66] | 304 nM | 309 nM | 315 nM | 401 nM | 316 nM
21 | AUGAGGAACAGUGAUCCUAUUCCAUGGGAAGGAGCGUAGGAUACUACAGGUAGGUCGCCCAGUGAUGUUGGGCGCGUGUUCUUGG [Soririza] | 120 nM | 112 nM | 113 nM | 140 nM | 117 nM
22 | GGAGCAGGUGAAGGAUAUCCCGGGCCAGAGUGAUGUUCUGGAUCCCUUGCCGUGUCUAAACGGGUGGGAGAAGGUCACUGAUAAG [Erinxe] | 137 nM | 187 nM | 213 nM | 178 nM | 231 nM

Row | Sequence | apparent KD of K4 kissing-loop reporter (input ligand: FMN 200 uM) | apparent KD of K4 kissing-loop reporter (input ligand: arginine 13.2 mM) | apparent KD of K4 kissing-loop reporter (input ligand: none) | apparent KD of K4 kissing-loop reporter [1] | apparent KD of K4 kissing-loop reporter [2]
23 | GUUGACUACCAGAGGUGAUGUAUAGUAUCGCGAGGACCGGUACGGCCGCCACUCGUGAAGAGAAAGGAGUGAUGUUCCGUAAUGG [C9] | 222 nM | 254 nM | 322 nM | 340 nM | 122 nM
24 | GGGCGUGGCGCGGCCGCCACUGCGCCUGGGUGCUCGCUGAGUGAUGUUCGUCGGCGGUUGGGUGGUAGGACCGGGUGCUGGUCGG [BDazzled - #11 SS Tryptophan B] | 640 nM | 407 nM | 629 nM | 517 nM | 563 nM
25 | AAAAUAAUCCAGUGAUGUUGGUAUCCAGAUACCAGCGACGAAAGUCGCCCUUGGCAGCUGUGGACGUACAAAAUAAGUACGUCCU [#OpenEnded 9 #StaticStem #K4Early] | 502 nM | 386 nM | 535 nM | 842 nM | 630 nM
26 | UUUUACGAUACGGCCGCCACUGGUGUUAUAUAUUUGCAGGAGUGAUGUUCGUGCGAUCAUUCCAUCAGGACCGGGUAUACGCGGC [theeternabot_sameState_KL_Trp_B_43] | 265 nM | 209 nM | 318 nM | 765 nM | 507 nM
27 | GUAUCGCUAGGAGGAUAUUCCAAUCCGCCUAUAAUAGGUGGUACGGAGUGAUGUUCCGAUUUACGGGAAGAAGGCCUAGUGAUAC [FMN B 17] | 155 nM | 318 nM | 302 nM | 381 nM | 346 nM
28 | UGUGCUGUGUAGUGUAAUGUUUUGCGGGAUACCAGAGUCUUUUUAUUCCCUUGGCAGCUUGAGUGAUGUUUGAUGCUGUUCUUGU [bbtbmullin] | 376 nM | 322 nM | 356 nM | 336 nM | 313 nM
29 | UGUGUUGUUUUGAUGUUUGUUGUAAGUUGGCAGGAUAUCGUAGAGGCGAGAAGGGCUUUUAUGCGUUAUGAGUGAUGUUUGUAGG [ggbgzmullin] | 353 nM | 241 nM | 357 nM | 351 nM | 319 nM
30 | CAUAGGAAACUAUGUAUCUCUCUGACUGAAGGAGCGCGUGAAAACGCAGGUAGGUCGCAGAAUUUAACAGAGAGUGAUGUUCUCU [Ex Arginine A K4 9] | 310 nM | 259 nM | 319 nM | 277 nM | 258 nM
31 | AAUGCAUUGUGAAGGAGCGCGAUAGGCAGUGAUGUUGCUUACAUUUUAUUAUGUUUUAAAACGCAGGUAGGUCGCACUUUGCAUA [JR_Nu_SSArginiB_Sub030] | 187 nM | 163 nM | 183 nM | 193 nM | 162 nM
32 | UGACUGGACUGAAGGAGCGCUUAACUCCUAGUGAUGUUAGGGAAACGAGACAAAGUCUCGAAGCAGGUAGGUCGCAGUCUAGUCU | 216 nM | 164 nM | 217 nM | 211 nM | 194 nM
33 | ACCUUAUUUGCCAGUGAUGUUGGACAGGAAGGAGCGGGCAUAAGCCCAGGUAGGUCGCCUGUCAACUUUCUUAUAGCCCAAAGGU [KL-XArg-A18] | 308 nM | 253 nM | 396 nM | 314 nM | 294 nM
34 | AAUAAAAUCACGGCCGCCACUGAUAUCCAUAUUAGGAGUGAUGUUCCUUUGACUAUAUAAUUUUACAGGACCGGGUGAAUAUUUA [JR_Nu_SSTryptoB_Sub027] | 104 nM | 143 nM | 120 nM | 131 nM | 90.8 nM
35 | UGAAAUCGAAUUCCGCGUGCAACGCCAGUAAAGGAUAUCAUCACACUGAGAAGGUUACGAAGCGGAGUGAUGUUCCGCUCUAUCC [theeternabot_sameState_KL_FMN_A_50] | 105 nM | 112 nM | 120 nM | 114 nM | 98.5 nM
36 | AAGCAUUCUUCGGAAUGCAGACCCGCUGAGGAGGAUAUGACGAAAGUCAGAAGGUCUCAGUGAUGUUGAGGCCUCCUCAAUGGUC [whbob_Ex_FMNA__2th181] | 212 nM | 160 nM | 155 nM | 160 nM | 162 nM
37 | GGCGGCCGCGCGCAAGCGCGGCCGGCCGAUACCAGCGCGCCGGCGCGCCCUUGGCAGCGGCGCCGAGUGAUGUUCGGCCUGCCGG [#2 Same State - Theophylline A Attempt #9 (HarryS)] | 477 nM | 267 nM | 449 nM | 374 nM | 401 nM
38 | ACUGGAAACAUCACGUAUCCAAAACUGGAUACCAGCUCGGAAACGAGCCCUUGGCAGCCAGAACUUGCAGUGAUGUUGCAAGUAA [Design9] | 386 nM | 323 nM | 384 nM | 392 nM | 398 nM
39 | AACUUUUAAUGAAUUACAUUUUAUUUAUCUCGAGGACCGGUACGGCCGCCACUCGUACUAUAGUGAUGUUAUAGAUAAGUCCUAA [JR_ExcTryptoA_Sub019] | 149 nM | 212 nM | 179 nM | 233 nM | 73.8 nM
40 | CUUCGUAAAGGCCCAGUGAUGUUGGGCACUCGAGGACCGGUACGGCCGCCACUCGCUCCCUAAGUCGCGUGCGUGGGCCACCGCC [Anala] | 115 nM | 97 nM | 99.1 nM | 94.5 nM | 104 nM
41 | AACUGUCAAGGACAACAUUACUGAAGUGAUACCAGCAUCGAAAGAUGCCCUUGGCAGCACUAACUUGCAGUGAUGUUGCAAGUAA [BrourdMod 3 - Jieux - Exclusion - Theophylline A] | 207 nM | 165 nM | 184 nM | 202 nM | 190 nM
42 | UGAUUUAACUGAAGGAGCGGCAAUUGAUAAGUAAAUAUAGUGAUGUUAUAUAAGAUAGAGAGCCAGGUAGGUCGCAGAGGUAUUA [ExArgB.M] | 154 nM | 154 nM | 132 nM | 210 nM | 142 nM
43 | CGCAGUGAUGUUGCGAGUUAAUUCAGGGAAGGAGCGCCACAGAUGGCAGGUAGGUCGCCCACGCAGUGAUGUUGCGUAUUCGGGU [Exclusion Arginine A GF 4] | 94.3 nM | 96.8 nM | 95.7 nM | 111 nM | 80.6 nM
